The source of these data is the supplement of paper PMC10567573.

To fix the notation:
B1: ZNF649 (parent)
chain: YQAGKPDALTKLEQGEPLWTLEDE
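Note: lentivirally expressed fusions sorted by FACS into six bins by GFP to DsRed ratio, PSI derived from sequencing read proportions per bin multiplied by bin number.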

The variants in this data set derive from B1. As to the kind of experiment: protein stability index of a GFP-peptide fusion (GPS, HEK-293T) (PSI 1-6); higher = more stable. The conditions noted are these: c terminus: a fixed tail appended.
YQAGKPDALTKLEQGEPLWTLWDE: the protein stability index stood at 2.35.
Next, YQAGKPDALTKLEQGEPLWTLFDE: 2.05; YQAGKPDALTKLEQGEPLWTLCDE: 3.45.
The same measure for YQAGKPDALTKLEQGEPLWTLADE: 4.8; for YQAGKPDALTKLEQGEPLWTLLDE: 3.6.
The same measure for YQAGKPDALTKLEQGEPLWTLTDE: 4.28; for YQAGKPDALTKLEQGEPLWTLHDE: 3.3.
With YQAGKPDALTKLEQGEPLWTLVDE, the protein stability index worked out at 2.88.
Take YQAGKPDALTKLEQGEPLWTLDDE: the protein stability index is 4.6.
The same measure for YQAGKPDALTKLEQGEPLWTLMDE: 2.92.
The same measure for YQAGKPDALTKLEQGEPLWTLKDE: 3.46; for YQAGKPDALTKLEQGEPLWTLSDE: 2.75.
The same measure for YQAGKPDALTKLEQGEPLWTLIDE: 3.75; for YQAGKPDALTKLEQGEPLWTLQDE: 3.5; for YQAGKPDALTKLEQGEPLWTLYDE: 2.62.
As for YQAGKPDALTKLEQGEPLWTLNDE, the protein stability index was 3.95.
As for YQAGKPDALTKLEQGEPLWTLPDE, the protein stability index was determined as 4.39.
YQAGKPDALTKLEQGEPLWTLGDE: the protein stability index turned out to be 3.88.
As to YQAGKPDALTKLEQGEPLWTLEHE, the protein stability index amounted to 4.13.
The same measure for YQAGKPDALTKLEQGEPLWTLEPE: 3.78.
Next, YQAGKPDALTKLEQGEPLWTLEKE: 3.51.
For YQAGKPDALTKLEQGEPLWTLEME, the protein stability index came to 2.99.
Next, YQAGKPDALTKLEQGEPLWTLECE: 2.98; YQAGKPDALTKLEQGEPLWTLEFE: 3.38; YQAGKPDALTKLEQGEPLWTLENE: 3.25.
The same measure for YQAGKPDALTKLEQGEPLWTLEYE: 2.14.
The same measure for YQAGKPDALTKLEQGEPLWTLEIE: 1.84; for YQAGKPDALTKLEQGEPLWTLEVE: 3.81.
Consider YQAGKPDALTKLEQGEPLWTLEWE, for which the protein stability index was found to be 2.13.
Next, YQAGKPDALTKLEQGEPLWTLEEE: 4.57; YQAGKPDALTKLEQGEPLWTLESE: 4.11; YQAGKPDALTKLEQGEPLWTLEGE: 3.61.
The same measure for YQAGKPDALTKLEQGEPLWTLERE: 4.16.
The same measure for YQAGKPDALTKLEQGEPLWTLETE: 3.32; for YQAGKPDALTKLEQGEPLWTLEQE: 3.86.
Consider YQAGKPDALTKLEQGEPLWTLELE, for which the protein stability index turned out to be 2.97.
Next, YQAGKPDALTKLEQGEPLWTMEDE: 3.88; YQAGKPDALTKLEQGEPLWTDEDE: 4.89.
Next, YQAGKPDALTKLEQGEPLWTFEDE: 4.42.
The same measure for YQAGKPDALTKLEQGEPLWTVEDE: 2.31; for YQAGKPDALTKLEQGEPLWTWEDE: 3.52.
In the case of YQAGKPDALTKLEQGEPLWTIEDE, the protein stability index amounted to 4.06.
The same measure for YQAGKPDALTKLEQGEPLWTREDE: 4.55; for YQAGKPDALTKLEQGEPLWTYEDE: 4.95; for YQAGKPDALTKLEQGEPLWTTEDE: 4.37.
Next, YQAGKPDALTKLEQGEPLWTGEDE: 4.4.
The same measure for YQAGKPDALTKLEQGEPLWTSEDE: 4.52; for YQAGKPDALTKLEQGEPLWTAEDE: 4.47.
On to YQAGKPDALTKLEQGEPLWTEEDE, for which the protein stability index worked out at 5.3.
Next, YQAGKPDALTKLEQGEPLWTHEDE: 5.03.
Next, YQAGKPDALTKLEQGEPLWTQEDE: 4.23.
The same measure for YQAGKPDALTKLEQGEPLWTCEDE: 2.78; for YQAGKPDALTKLEQGEPLWTKEDE: 4.79; for YQAGKPDALTKLEQGEPLWTNEDE: 4.39.
YQAGKPDALTKLEQGEPLWTLEDA: the protein stability index came out at 3.74.
The same measure for YQAGKPDALTKLEQGEPLWTLEDC: 3.49.
Consider YQAGKPDALTKLEQGEPLVTLEDE, for which the protein stability index is 5.72.
The same measure for YQAGKPDALTKLEQGEPLATLEDE: 5.52.
The same measure for YQAGKPDALTKLEQGEPLITLEDE: 5.21; for YQAGKPDALTKLEQGEPLETLEDE: 5.34; for YQAGKPDALTKLEQGEPLDTLEDE: 5.31.
The same measure for YQAGKPDALTKLEQGEPLSTLEDE: 5.57.
As for YQAGKPDALTKLEQGEPLFTLEDE, the protein stability index was determined as 4.86.
As for YQAGKPDALTKLEQGEPLLTLEDE, the protein stability index turned out to be 4.92.
The same measure for YQAGKPDALTKLEQGEPLCTLEDE: 4.86; for YQAGKPDALTKLEQGEPLTTLEDE: 5.61; for YQAGKPDALTKLEQGEPLPTLEDE: 5.62.
Regarding YQAGKPDALTKLEQGEPLYTLEDE, the protein stability index was found to be 5.24.
Next, YQAGKPDALTKLEQGEPLRTLEDE: 4.69; YQAGKPDALTKLEQGEPLHTLEDE: 5.72; YQAGKPDALTKLEQGEPLMTLEDE: 4.87.
Next, YQAGKPDALTKLEQGEPLKTLEDE: 4.98; YQAGKPDALTKLEQGEPLNTLEDE: 5.2.
The same measure for YQAGKPDALTKLEQGEPWWTLEDE: 3.59; for YQAGKPDALTKLEQGEPYWTLEDE: 3.95.
In the case of YQAGKPDALTKLEQGEPLWRLEDE, the protein stability index was determined as 4.34.
Next, YQAGKPDALTKLEQGEPLWLLEDE: 3.15; YQAGKPDALTKLEQGEPLWMLEDE: 5.05; YQAGKPDALTKLEQGEPLWGLEDE: 4.24.
For the variant YQAGKPDALTKLEQGEPLWQLEDE, the protein stability index is 4.82.
The same measure for YQAGKPDALTKLEQGEPLWNLEDE: 4.42; for YQAGKPDALTKLEQGEPLWYLEDE: 4.7.
For the variant YQAGKPDALTKLEQGEPLWWLEDE, the protein stability index amounted to 2.67.
Next, YQAGKPDALTKLEQGEPLWSLEDE: 3.73; YQAGKPDALTKLEQGEPLWPLEDE: 4.58; YQAGKPDALTKLEQGEPLWILEDE: 3.96.
Consider YQAGKPDALTKLEQGEPLWALEDE, for which the protein stability index stood at 3.73.
Next, YQAGKPDALTKLEQGEPLWVLEDE: 4.41; YQAGKPDALTKLEQGEPLWFLEDE: 4.22.
For the variant YQAGKPDALTKLEQGEPLWCLEDE, the protein stability index is 2.62.
Next, YQAGKPDALTKLEQGEPLWDLEDE: 5.06; YQAGKPDALTKLEQGEPLWELEDE: 5.14; YQAGKPDALTKLEQGEPLWHLEDE: 4.57.
Consider YQAGKPDALTKLEQGEPLWKLEDE, for which the protein stability index worked out at 4.13.
